The Kd is the constant that tells how readily two partners part at equilibrium. Low values mean higher affinity, high ones lower affinity. One may read the IC50 as the concentration that gives 50% inhibition. Low values mean greater potency, high ones weaker potency.

Results on 3 molecules are retold here after publication PMC9633773, “Discovering cell-active BCL6 inhibitors: effectively combining biochemical HTS with multiple biophysical techniques, X-ray crystallography and cell-based assays” (Scientific Reports, 2022).

Conditions in all cases: both partners purified
In data set [1] the target is T1, BCL6 BTB domain (BCL6 5-129, tag removed by HRV-3C protease) (human, UniProt P41182 5-129). As to the kind of experiment: fluorescence polarisation; direct binding of the BCOR-AF633 probe to BCL6 BTB, FP KD (Figure S1A).
Data set [2] deals with Trx-6His-HRV3C-BCL6 (Thioredoxin-6His-tagged BCL6 BTB, uncleaved) (human, UniProt P41182 5-129). Described as above.
The target of data set [3] is T1, BCL6 BTB domain (BCL6 5-129, tag …). As to the kind of experiment: fluorescence polarisation; competition: 10 nM BCOR-AF633, 3 µM BCL6 BTB, unlabelled peptide varied; 20 mM Hepes/NaOH pH 8.0, 150 mM NaCl, 0.5 mM TCEP, 0.05% Tween 20, 1-2% DMSO; 2 h at room temperature. A general note: Fluorescence polarisation rises when a labelled molecule tumbles more slowly, as on binding a larger partner.

Data set [4] concerns the target T2, BCL6 BTB domain (BCL6 5-129, tag removed by HRV-3C protease) (human, UniProt P41182 5-129). As to the kind of experiment: thermal shift assay; 10 µM BCL6 BTB, Sypro Orange, sodium acetate pH 6, 100 mM NaCl, 0.5 mM TCEP; 200 µM BCOR control peptide.
Data set [5] addresses T2, BCL6 BTB domain (BCL6 5-129, tag …). As to the kind of experiment: fluorescence polarisation; competition: 10 nM BCOR-AF633, 3 µM BCL6 BTB, unlabelled peptide varied; 20 mM Hepes/NaOH pH 8.0, 150 mM NaCl, 0.5 mM TCEP, 0.05% Tween 20, 1-2% DMSO; 2 h at room temperature. The source holds these as a separate data set.

Ends that are not written are not given here.

B1: Alexa Fluor 633-conjugated BCOR peptide (RSEIISTAPSSWVVPGP-Cys(AF633)-amide) (peptide)
peptide: RSEIISTAPSSWVVPGPC(Alexa Fluor 633 C5 maleimide)-NH2
notes: added C-terminal cysteine that carries the dye; also called BCOR-AF633; BCOR-A633; source: synthetic peptide, bought: Cambridge Research Biochemicals
In the case of B1, the equilibrium dissociation constant (Kd) was found to be 1.7 ± 0.3 µM in data set [1] and 1.74 µM in data set [2].

B2: SMRT peptide (EGLVATVKEAGRSIHEIPR) (peptide)
peptide: EGLVATVKEAGRSIHEIPR
notes: also called SMRT control peptide; unlabelled SMRT peptide; source: synthetic peptide, bought: Pepceuticals Ltd
Take B2: in data set [3], the concentration for half-maximal inhibition (IC50) is 16 ± 6 µM.

B3: unlabelled BCOR peptide (17 residue BCOR peptide) (peptide)
chain: RSEIISTAPSSWVVPGP
modifications: Terminal capping of the unlabelled peptide is not printed. Limits come from the UniProt BCL6-interaction region 498-514, which is 17 residues and matches the printed probe RSEIISTAPSSWVVPGP without …
Turning to B3, the “ΔTm with 200 µM peptide” value in data set [4] was determined as 6.5 °C. Further, the IC50 in data set [5] worked out at 13 ± 1 µM.
